7 molecules from article PMC8189969, “Interaction standards for biophysics: anti-lysozyme nanobodies” (European Biophysics Journal, 2021) can be followed below.

Assay [1] has as its target T1, hen egg white lysozyme (Gallus gallus (hen egg white), UniProt P00698).
T1 construct: hen egg white lysozyme (HEWL), 14.5 kDa, monomeric; The source is named for ITC (Roche powder); also called HEWL; source: bought: Roche (HEWL lysozyme powder, > 95%)
Briefly: ITC; Malvern PEAQ-ITC; 20 °C; PBS pH 7.4 with 0.005% tween 20; lysozyme in the cell and nanobody titrated (so in the source); nanobody 20 or 30 µM, lysozyme 200 or 300 µM; single site model. Conditions: both partners purified. On the technique in general: Isothermal titration calorimetry measures the heat released or taken up as one component is titrated into another.

Another assay addresses H04 nanobody. Briefly: SEC-MALS; Superdex-75 10/300, 0.75 ml/min, PBS pH 7.4; Wyatt Helios 18-angle photometer, QELS, Optilab TrEX. In general terms: SEC sorts molecules by how far they enter the pores of the column.
Assay [2] has as its target T1, hen egg white lysozyme. In words: SPR; Biacore T200; lysozyme amine-coupled (EDC/NHS) to a CM5 chip, max 100 units; nanobody as analyte, multi-cycle kinetics; PBS with 0.01% tween20; 20 °C (row labels of Table 1); Langmuir 1:1 model. Conditions: both partners purified. A general note: Surface plasmon resonance follows binding to a sensor surface in real time, without labels.

The target in assay [3] is T1, hen egg white lysozyme. The assay is described as above. The conditions noted are these: both partners purified. This is another data set of the same source.
Assay [4] addresses T1, hen egg white lysozyme. Briefly: ITC; Malvern PEAQ-ITC; 37 °C; PBS pH 7.4 with 0.005% tween 20; lysozyme in the cell and nanobody titrated (so in the source); single site model. Conditions: both partners purified.

T1 sequence (P00698 19-147): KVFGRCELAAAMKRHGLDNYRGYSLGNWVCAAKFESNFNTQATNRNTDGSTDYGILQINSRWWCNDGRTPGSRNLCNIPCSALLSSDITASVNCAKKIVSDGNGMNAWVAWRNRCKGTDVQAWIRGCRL

B1: Phage-F07 nanobody (VHH)
VHH: EVQLQASGGGFVQPGGSLRLSCAASGTSSDLYDMGWFRQAPGKEREFVSAISGDDTQYTYYADSVKGRFTISRDNSKNTVYLQMNSLRAEDTATYYCAPRAHEPHGHWNYYWGQGTQVTVSS
notes: selected by phage display from the NaLi-H1 synthetic library (Hybrigenics); also called P-F07; source: E. coli T7-Express, purified (IMAC, Superdex-75)
As a reminder, the Kd is the concentration at which binding is half-saturated. A higher Kd goes with lower affinity. In the assay with hen egg white lysozyme [1], B1 displayed a Kd of 685 nM and a dH of -23.5 kcal/mol.

B2: H04 nanobody (VHH)
VHH: EVQLLESGGGLVQPGGSLRLSCAASGFRFDAEDMGWVRQAPGKGLEWVSSIYGPSGSTYYADSVKGRFTISRDNSKNTLYLQMNSLRAEDTAVYYCAKYTSPPQNHGFDYWGQGTLVTVSS
notes: crystal structure with lysozyme PDB 4U3X (Rouet et al. 2015); CDR3 of 12 residues; Developed in Daniel Christ's group (Rouet et al. 2015); source: E. coli T7-Express, purified (IMAC, Superdex-75)
For orientation: stoichiometry N means the number of molecules, sites or subunits per partner or assembly. The term koff denotes the rate constant with which the complex falls apart. A lower koff goes with slow dissociation. As usually defined, the kon is the second-order rate constant of association. Read a low kon as slower complex formation. In the assay with hen egg white lysozyme [1], B2 came in with a Kd of 24 nM and a dH of -17.6 kcal/mol. In the assay with H04 nanobody, this molecule showed a stoichiometry N of 2. In the assay with hen egg white lysozyme [2], this molecule showed a Kd of 19 nM, a koff of 0.0008 s⁻¹ and a kon of 43000 M⁻¹ s⁻¹.

B3: H04 H106A nanobody (VHH)
VHH: EVQLLESGGGLVQPGGSLRLSCAASGFRFDAEDMGWVRQAPGKGLEWVSSIYGPSGSTYYADSVKGRFTISRDNSKNTLYLQMNSLRAEDTAVYYCAKYTSPPQNAGFDYWGQGTLVTVSS
notes: as the chain of m2 (H04) with H106A in CDR3; source: E. coli T7-Express, purified (IMAC, Superdex-75)
B3: in the assay with hen egg white lysozyme [1], the Kd amounted to 296 nM and the dH was -17 kcal/mol. For the same molecule, in the assay with hen egg white lysozyme [2], the Kd amounted to 124 nM, the koff came to 0.056 s⁻¹ and the kon stood at 450000 M⁻¹ s⁻¹. In addition, the Kd in the assay with hen egg white lysozyme [3] was about 250 nM.

B4: Cab-Lys3 nanobody (VHH)
VHH: DVQLQASGGGSVQAGGSLRLSCAASGYTIGPYCMGWFRQAPGKEREGVAAINMGGGITYYADSVKGRFTISQDNAKNTVYLLMNSLEPEDTAIYYCAADSTIYASYYECGHGLSTGGYGYDSWGQGTQVTVSS
notes: crystal structure PDB 1XFP named for it (Muyldermans and Lauwereys 1999); CDR3 of 24 residues with an extra disulphide between CDR1 and CDR3; also called WT Cab-Lys3; source: E. coli T7-Express, purified (IMAC, Superdex-75)
In the case of B4, in the assay with hen egg white lysozyme [1], the Kd was determined as 27 nM and the dH worked out at 1.6 kcal/mol. In the assay with hen egg white lysozyme [2], this molecule showed a Kd of 5 nM, a koff of 0.0009 s⁻¹ and a kon of 41000 M⁻¹ s⁻¹. In the assay with hen egg white lysozyme [4], this molecule had a Kd of 5 nM and a dH of -4.02 kcal/mol.

B5: Cab-Lys3 T101S nanobody (VHH)
VHH: DVQLQASGGGSVQAGGSLRLSCAASGYTIGPYCMGWFRQAPGKEREGVAAINMGGGITYYADSVKGRFTISQDNAKNTVYLLMNSLEPEDTAIYYCAADSSIYASYYECGHGLSTGGYGYDSWGQGTQVTVSS
notes: as the chain of m6 (Cab-Lys3) with T101S in CDR3; source: E. coli T7-Express, purified (IMAC, Superdex-75)
Regarding B5, in the assay with hen egg white lysozyme [1], the Kd was found to be 113 nM and the dH turned out to be 3 kcal/mol. In the assay with hen egg white lysozyme [2], this molecule yielded a Kd of 135 nM, a koff of 0.029 s⁻¹ and a kon of 160000 M⁻¹ s⁻¹. In the assay with hen egg white lysozyme [4], this molecule showed a Kd of 105 nM and a dH of -5.1 kcal/mol.

B6: Cab-Lys3 S105N nanobody (VHH)
VHH: DVQLQASGGGSVQAGGSLRLSCAASGYTIGPYCMGWFRQAPGKEREGVAAINMGGGITYYADSVKGRFTISQDNAKNTVYLLMNSLEPEDTAIYYCAADSTIYANYYECGHGLSTGGYGYDSWGQGTQVTVSS
notes: as the chain of m6 (Cab-Lys3) with S105N in CDR3; source: E. coli T7-Express, purified (IMAC, Superdex-75)
For B6, in the assay with hen egg white lysozyme [1], the Kd came to 125 nM and the dH amounted to 2.6 kcal/mol. In the assay with hen egg white lysozyme [2], this molecule came in with a Kd of 35 nM, a koff of 0.0028 s⁻¹ and a kon of 79000 M⁻¹ s⁻¹. In the assay with hen egg white lysozyme [4], binding was put at a Kd of 73 nM and the dH is -3.3 kcal/mol.

B7: Phage-B09 nanobody (VHH)
VHH: EVQLQASGGGFVQPGGSLRLSCAASGSTYRRSTMGWFRQAPGKEREFVSAISSDHSHPDYYADSVKGRFTISRDNSKNTVYLQMNSLRAEDTATYYCAFQYDSDKKSYWGQGTQVTVSS
notes: selected by phage display from the NaLi-H1 synthetic library (Hybrigenics); also called P-B09; source: E. coli T7-Express, purified (IMAC, Superdex-75)
Consider B7, for which, in the assay with hen egg white lysozyme [1], binding was characterised by a dissociation constant (Kd) of 1430 nM and the dH is -14.5 kcal/mol. In the assay with hen egg white lysozyme [2], this molecule showed a Kd of 1300 nM, a koff of 0.6 s⁻¹ and a kon of 450000 M⁻¹ s⁻¹.
